In publication PMC12340942:

Molecular target: RSV postfusion F (Flys-GCN without the StrepII-tag) (respiratory syncytial virus (RSV))
Assay: cryo-EM structure

Substance: RSV postfusion F (Flys-GCN without the StrepII-tag) (domain or fragment)
- stoichiometry N: 3
